In the RNAGym collection of RNA variant scans (doi:10.7554/elife.90254):

B1: OR4K15 (parent)
chain: GUUAACGGUCAUAGGCCAUGGAAACUAGGAGCACCAUUUCGCUGCCAGUGAAGAAAUGAACAAAGAAAAUCUGGGCCAGGCAGGCAUCAAAAGAAAUAGUCUUGCGCUCAACCAGAAAGUCUGUAAUCAUUUUAAGGGUA

Variants of: B1
Assay: self-cleavage, relative activity (ratio to wild type); higher = more cleavage; in vitro, sequencing; the parent is a self-cleaving ribozyme

Variant | self-cleavage
A11U A52C | 1.27
A18U G41A | 1.09
A59G A135G | 0.84
A30U A134G | 1.06
U49C U87C | 1.58
A63U A134G | 0.32
C10U G104A | 0.06
C81U A129U | 0.16
A11U A36U | 0.78
A67G G75C | 0.03
A56G A89G | 1.5
C16U A66U | 1.27
U2C U132C | 1.4
U26C C76U | 0.09
U39C A66U | 1.28
U39A A47G | 0.44
G7U U97A | 1.41
A33U A66G | 1.91
C25U A60G | 1.88
A117G A118C | 0.24
G20A A68G | 1.37
C17U A94G | 1.32
U43C A89G | 2.04
A86G A91G | 0.16

Variant | self-cleavage
A114U U122C | 0.04
A18G G79A | 0.24
A4G U133A | 1.25
U2A G104A | 0.16
G31A A90G | 1.8
A22U G74A | 0.1
A55G U100A | 0.48
A51G A55U | 1.2
A51G A89C | 1.6
U43C A134U | 2.04
U97C U122C | 1.21
C34A A116U | 0.51
U43A G65A | 2.07
A68G A96U | 2.13
A51G A52U | 1.49
C81A A92G | 0.26
G48A A68G | 1.7
A55U A118G | 1.43
C10A C77U | 1.18
A92G U102G | 0.61
U3C A63U | 1.02
U12A A59U | 0.95
A82G A129G | 0.47
G58A G106A | 0.01

Variant | self-cleavage
A23G A118C | 0.5
G83A A90G | 1.34
U72C A86G | 0.14
A11G A13G | 1.26
A95G C113U | 0.15
C77U A125G | 1.37
A18G A23U | 1.88
U12C A95G | 1.57
G41A A129G | 0.61
A60G A110U | 1.3
U72C C112U | 0.02
C46U A89U | 1.71
A66G G104A | 0.03
A54C U57C | 1.29
A69G A95G | 1.8
A62G A94G | 1.52
A13G A91G | 0.9
U12A C77U | 1.45
A23G U49A | 1.12
A22U A55G | 0.73
A94G A96U | 0.68
A30G G31C | 2
G99A C113U | 0.05
G74U A114G | 0.03

Variant | self-cleavage
A62G G83A | 0.99
A78U U122A | 0.31
G50U U103C | 1.23
G73U | 0.05
A24G C85U | 0.95
A91G G93A | 1.82
G73A U131C | 0.08
C40A A114G | 0.11
A23G A47U | 0.77
U72C A140C | 0.44
A11G A24U | 0.53
A86U A135G | 2.44
A11U A63U | 1.56
U39C A140C | 1.79
U72A C105U | 0.04
U124C A140U | 1.14
G58U A90G | 1.25
U12C U37C | 1.04
A18G C71U | 0.22
A18G U103G | 0.05
A60G U127C | 0.93
A64C A95G | 2.58
A67G A69G | 0.77
U38C A91G | 1.24

Variant | self-cleavage
A4U A59U | 1.95
A47G A117G | 1.32
C6U A96G | 1.1
A92G U108A | 0.03
U124C A125U | 1.37
A24G A63G | 1.17
A4G U43C | 1.35
C45A A116G | 1.32
A52U G99A | 0.22
A64G A125G | 0.28
A30U G73U | 0.17
G15A A86G | 1.6
A13G A64C | 1.08
A5G A22U | 1.01
A68C U127G | 2.01
U57C U130C | 0.78
A47U C105U | 0.14
C45A U120A | 2.12
C6G U19A | 1.65
A51U A78G | 0.26
A18U U127C | 0.91
A62G U120A | 1.1
A52U U70C | 1.72
U2C A86G | 0.95

Variant | self-cleavage
A118G A126U | 1.22
A66U A129G | 0.39
A90G U108A | 0.02
A54G G74U | 0.11
G115U A129U | 0.03
A62G U108C | 0.02
A59C U132C | 1.64
U49G U108A | 0.04
A47G A64U | 1.26
A59G A110G | 0.17
U38A U39C | 1.62
U3C A60G | 0.93
A78U A98U | 0.71
A116G U133G | 0.82
A51G U103G | 0.05
C17U U102C | 0.9
A60U U103C | 0.16
U39C A114G | 0.72
A27G A63U | 1.83
A22G A117G | 1.68
A33G U127C | 0.23
G115U | 0.23
G1A C40U | 1.78
U9C C61U | 2.27

Variant | self-cleavage
G65A A78G | 0.2
A5G U38C | 1.14
A110G U122C | 0.09
U49C A52U | 1.38
U97C G115U | 0.03
U87C A135G | 1.81
G7C A91G | 0.76
A63G A110U | 1.88
U132C U139C | 1.81
U43C G58A | 0.64
G84A U122C | 2.09
A18G A33U | 1.92
A89G A125G | 0.16
A59G U132G | 1.41
U12A A140G | 1.5
A24C A52G | 1.55
A11G U19C | 0.56
G31A A52G | 2.05
U57A U102G | 0.16
A55G G99A | 0.16
A11C A60G | 1.07
G29U A111G | 0.05
G83A | 1.55
A52G C128U | 1.26

Variant | self-cleavage
A78G C88A | 0.17
A52G A82G | 0.19
U3C A98G | 0.6
U9C G123A | 2.14
A33G A63U | 0.76
A24C A51G | 1.23
C61G A62U | 1.87
A110U A111G | 0.01
A69G U97C | 0.98
U19C A51U | 1
A90G C105U | 0.04
U102G A126G | 0.69
A24U C76U | 0.06
A134C | 1.35
G15A A64U | 1.37
U57C A63G | 1.05
G7U A11G | 1.63
U9A U38C | 1.05
A22U A134G | 1.35
A22U U127C | 1.13
G50U U100G | 1.34
A30C A36G | 2.26
A52G A129U | 0.71
A91U A114G | 0.62

Variant | self-cleavage
A91G C109U | 0.4
A96G A111U | 0.11
A47G G75U | 0.16
U19C U122C | 0.46
U2C A33C | 0.88
A69G C81A | 0.15
A18G A89G | 2.05
U57A U103C | 0.22
U70C G106A | 0.01
A24C A125G | 0.43
G29A A67G | 1.29
A23G A62C | 0.98
A56G U130C | 1.63
A54G U127A | 2.16
U97C A125G | 0.31
A13G A129G | 0.85
C34A A59G | 1.11
A27G A62U | 1.15
A67G A126U | 0.87
U103C U120G | 0.4
A52U | 0.8
G14A A63U | 1.23
U38C A116G | 1.09
U9G A89U | 1.03

Variant | self-cleavage
A59G C113U | 0.03
C46U A51G | 1.42
A30G C35A | 0.7
A33G U102C | 1.44
U2C A126U | 0.77
C17U A118G | 1.1
A68G A129U | 1.42
A67G A129G | 0.85
G65A A66G | 1.13
G21A U130C | 0.53
A33C A116G | 0.76
G28A U102C | 0.81
U12C A111G | 0.03
A54G U102C | 1.41
A11U A62C | 0.99
A33U A82U | 0.23
A22G C46G | 1.35
A47U A60C | 0.14
U37C U39C | 1.72
C40U A63G | 2.13
U37G A96G | 1.97
A22U A64G | 1.62
A47C A55G | 1.43
U108A U124C | 0.01

Variant | self-cleavage
A51U U124C | 0.77
U49A U130C | 1.53
U103C U122C | 0.55
A18U A54G | 1.28
G28A A55G | 1.7
A114C U131C | 0.02
A24G A96U | 0.93
A55G C76U | 0.15
A56U U132C | 1.11
U38C U43A | 2.13
U49A U70A | 0.66
A33C U87A | 1.18
G41A U103C | 1.76
C128G | 0.45
A91U A117G | 1.88
A68C A92G | 1.88
A22U A118U | 0.64
A23G A55C | 1.33
A82U U102C | 0.33
U3C A18G | 1.02
A66G A114G | 0.48
U70A U108C | 0.01
C85U A96U | 1.58
U57A A140G | 1.3

Variant | self-cleavage
A63G A89U | 1.13
U70C G74U | 0.17
A94U U120A | 2.18
A92U U139C | 1.43
U43A G83A | 1.97
A67G A91U | 0.99
A89U A111G | 0.03
A60U A117G | 1.84
U39A U122C | 1.39
A27G A118G | 0.47
A47U U122A | 0.87
G48A A66U | 1.33
C16U U57C | 1.14
A36G A62U | 2.06
U39C A68G | 1.37
A54U A67G | 0.82
G29U A78G | 0.24
G1A U122C | 0.48
U9C G21A | 1.38
A18G A126U | 0.44
A82G U102A | 0.34
G73C | 0.23
U38C A68U | 2.15
G93C A98G | 1.57

Variant | self-cleavage
U2A A125U | 2.08
A64G A116G | 0.61
A86C A94U | 1.15
A36C A86U | 2.2
G50U G53A | 2.2
U37G A51G | 1.31
A86G U120A | 1.8
U19G A51U | 1.46
U2G U9C | 1.05
U12C G41A | 1.35
A91G A110G | 0.11
U9C U12A | 1.59
A54G A134U | 1.32
A60G U70A | 1.3
U127A C128U | 1.78
A52G A63G | 1.33
G14A A69G | 1.03
A36U A140G | 2.09
A91G U122C | 0.42
A95G U133C | 1.23
A23G A52U | 1.69
G21A | 0.62
U49C U127G | 1.49
A18G A91U | 1.94

Variant | self-cleavage
U19C A91G | 1.09
U39C A116C | 0.07
A66U A129U | 0.61
U72C U131G | 0.28
A47G A59U | 1.56
A27G | 1.1
A62G A64G | 0.94
A23U U70C | 0.83
A117G A135G | 2.66
A11U A125G | 1.3
G7U C77A | 0.23
A60G A96U | 1.96
A55G A59G | 1.17
U57G U100C | 2.26
A13G U97A | 1.2
A13G A86C | 0.5
U26C A51G | 1.72
A56G G83A | 1.67
C113U G136A | 0.18
A51U C128A | 0.45
U19C C85U | 0.88
C40A | 1.83
